Experimental data published in patent US8173604.

Legend:
[1] = system: 4060 peptide (eighteen-residue peptide, residues 40-57 of human Skp2)
[2] = target: insect cell-produced and purified GST-cyclin A/Cdk2 (kinase reactions, ~3 nM) (UniProt P20248); experiment: kinase inhibition: purified proteins, ~3 nM GST-cyclin A/Cdk2, Rb-C phosphorylation, non-linear least squares (FIG. 7F)

Sequence of purified p27 (GST cleaved off by thrombin) (P46527 whole entry): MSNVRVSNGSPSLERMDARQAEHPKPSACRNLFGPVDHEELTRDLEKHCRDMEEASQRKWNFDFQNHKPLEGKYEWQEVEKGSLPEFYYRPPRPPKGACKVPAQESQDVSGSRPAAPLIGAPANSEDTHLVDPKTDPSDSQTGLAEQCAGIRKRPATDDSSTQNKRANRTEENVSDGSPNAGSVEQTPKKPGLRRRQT

Ki [2] | Substance | IP-kinase assay, phosphorylation of Rb-C by cyclin A/Cdk2 [1] | IP-kinase assay, phosphorylation of Rb-C by cyclin A/Cdk2 (Peptide RxL)
– | myc-cyclin A/Cdk2 (293T cell extracts transfected with myc-cyclin A and Cdk2) | the 4060 peptide did not | the RxL peptide inhibited the kinase activity of cyclin A/Cdk2 towards Rb-C as expected
2 nM | purified p27 (GST cleaved off by thrombin) (from UniProt P46527 1-198) (other; other documents disagree on this pair) | – | –
